This note sets out measurements from US20170165338A1.

This assay has as its target HLA-A*02 (human). Nature of the assay: UV-exchange b2m ELISA.

Turning to SLTEVSLPL […], the peptide exchange yield was in the range of 50 to 75%.
